In paper PMC10620215 one finds stoichiometry N data, which are given here for 1 substance.

The test addresses EcbAgaN (Escherichia coli long-B pAgo-associated nuclease), N-terminal 6xHis tag (Escherichia coli). In words: SEC-MALS; EcbAgaN, already purified by SEC, loaded onto Superdex 200 10/300 GL in 20 mM Tris-HCl pH 7.5, 250 mM NaCl, 0.5 mL/min; BSA monomer as standard. In general terms: In gel filtration, larger molecules generally elute earlier.

As to “EcbAgaN (Escherichia coli long-B pAgo-associated nuclease), N-terminal 6xHis tag (enzyme)”, the stoichiometry N was determined as 2.

As a reminder, the stoichiometry N is the number of molecules, sites or subunits per partner or assembly.
